The record followed here is patent US20100260668A1 (published 2010).

The target of assay [1] is T1, DLL4 (DLL4 ECD/His tag, R&D Systems 1506-D4-050) (UniProt Q9NR61 27-529).
T1 construct: extracellular domain; not shown: His tag
Nature of the assay: Direct bind ELISA on DLL4; DLL4 domain N-term., HC short, LC long.

In assay [2] the target is T1, DLL4 (DLL4 ECD/His tag, R&D Systems …). The experiment in a line: Direct bind ELISA on DLL4; DLL4 domain C-term., HC long, LC short.
The target is the same in assay [3]. The experiment in a line: Direct bind ELISA on DLL4; DLL4 domain N-term., HC long, LC short.

B1: DVD507 (DLL4/VEGF DVD-Ig) (bispecific antibody, human IgG1)
VH: EVQLQQSGPELVKPGASVKMSCKASGYTFTSYVINWVKQKPGQGLEWIGLINPYNDGTKYNEKFKVKATLTSDKSSSTAYMELSSLTSEDSAVYYCASYYYGSRYYFDYWGQGTTLTVSSASTKGPEVQLVESGGGLVQPGGSLRLSCAASGFTISDYWIHWVRQAPGKGLEWVAGITPAGGYTYYADSVKGRFTISADTSKNTAYLQMNSLRAEDTAVYYCARFVFFLPYAMDYWGQGTLVTVSS
VL: DIQMTQSSSYLSVSLGGRVTITCKASDHINNWLAWYQQKPGNAPRLLISGATSLETGVPSRFSGSGSGKDYTLSITSLQTEDVATYYCQQYWSIPLTFGAGTKLELKRTVAAPSVFIFPPDIQMTQSPSSLSASVGDRVTITCRASQDVSTAVAWYQQKPGKAPKLLIYSASFLYSGVPSRFSGSGSGTDFTLTISSLQPEDFATYYCQQSYTTPPTFGQGTKVEIKR
notes: HC linker short, LC linker long; also called DVD507H; DVD507L
On to B1, for which it took 0.71 nM to reach a half-maximal effect in assay [1] (EC50).

B2: DVD526 (VEGF/DLL4 DVD-Ig) (bispecific antibody, human IgG1)
VH: EVQLVESGGGLVQPGGSLRLSCAASGFTISDYWIHWVRQAPGKGLEWVAGITPAGGYTYYADSVKGRFTISADTSKNTAYLQMNSLRAEDTAVYYCARFVFFLPYAMDYWGQGTLVTVSSASTKGPSVFPLAPEVQLQQSGPELEKPGASVKISCKASGYSFTGYNMNWVKQSNGKSLEWIGNIDPYFGGTNYNQKFKGKATLTVDKSSSTAYMQLKSLTSEDSAVYYCARNYDYDGGCFDYWGQGTTLTVSS
VL: DIQMTQSPSSLSASVGDRVTITCRASQDVSTAVAWYQQKPGKAPKLLIYSASFLYSGVPSRFSGSGSGTDFTLTISSLQPEDFATYYCQQSYTTPPTFGQGTKVEIKRTVAAPQAVVTQESALTTSPGETVTLTCRSSTGAVTTSNYANWVQEKPDHLFTGLIGGTNNRAPGVPARFSGSLIGDKAALTITGAQTEDEAIYFCALWYSNHWVFGGGTKLTVLG
notes: HC linker long, LC linker short; also called DVD526H; DVD526L
Take B2: in assay [2], the EC50 is 1.57 nM.

B3: DVD455 (DLL4/VEGF DVD-Ig) (bispecific antibody, human IgG1)
VH: QVQLVQSGAEVKKPGASVKISCKASGYSFTAYYIHWVKQAPGQGLEWIGYISSYNGATNYNQKFKGRVTFTTDTSTSTAYMELRSLRSDDTAVYYCARDYDYDVGMDYWGQGTLVTVSSASTKGPSVFPLAPEVQLVESGGGLVQPGGSLRLSCAASGFTISDYWIHWVRQAPGKGLEWVAGITPAGGYTYYADSVKGRFTISADTSKNTAYLQMNSLRAEDTAVYYCARFVFFLPYAMDYWGQGTLVTVSS
VL: DIVMTQSPDSLAVSLGERATISCRASESVDNYGISFMKWFQQKPGQPPKLLIYAASNQGSGVPDRFSGSGSGTDFTLTISSLQAEDVAVYYCQQSKEVPWTFGGGTKVEIKRTVAAPDIQMTQSPSSLSASVGDRVTITCRASQDVSTAVAWYQQKPGKAPKLLIYSASFLYSGVPSRFSGSGSGTDFTLTISSLQPEDFATYYCQQSYTTPPTFGQGTKVEIKR
notes: HC linker long, LC linker short; also called DVD455H; DVD455L
In turn, B3 yielded an EC50 in assay [3] of 0.24 nM.

B4: DVD478 (VEGF/DLL4 DVD-Ig) (bispecific antibody, human IgG1)
VH: EVQLVESGGGLVQPGGSLRLSCAASGFTISDYWIHWVRQAPGKGLEWVAGITPAGGYTYYADSVKGRFTISADTSKNTAYLQMNSLRAEDTAVYYCARFVFFLPYAMDYWGQGTLVTVSSASTKGPSVFPLAPEVQLVESGGGLVQPGGSLRLSCAASGFTFTDNWISWVRQAPGKGLEWVGYISPNSGFTYYADSVKGRFTISADTSKNTAYLQMNSLRAEDTAVYYCARDNFGGYFDYWGQGTLVTVSS
VL: DIQMTQSPSSLSASVGDRVTITCRASQDVSTAVAWYQQKPGKAPKLLIYSASFLYSGVPSRFSGSGSGTDFTLTISSLQPEDFATYYCQQSYTTPPTFGQGTKVEIKRTVAAPDIQMTQSPSSLSASVGDRVTITCRASQDVSTAVAWYQQKPGKAPKLLIYSASFLYSGVPSRFSGSGSGTDFTLTISSLQPEDFATTYYCQQSYTGTVTFGQGTKVEIKR
notes: HC linker long, LC linker short; also called DVD478H; DVD478L
For B4, in assay [2], a half-maximal effect (EC50) was put at 2.53 nM.

B5: DVD531 (DLL4/VEGF DVD-Ig) (bispecific antibody, human IgG1)
VH: EVQLQQSGPELEKPGASVKISCKASGYSFTGYNMNWVKQSNGKSLEWIGNIDPYFGGTNYNQKFKGKATLTVDKSSSTAYMQLKSLTSEDSAVYYCARNYDYDGGCFDYWGQGTTLTVSSASTKGPEVQLVESGGGLVQPGGSLRLSCAASGFTISDYWIHWVRQAPGKGLEWVAGITPAGGYTYYADSVKGRFTISADTSKNTAYLQMNSLRAEDTAVYYCARFVFFLPYAMDYWGQGTLVTVSS
VL: QAVVTQESALTTSPGETVTLTCRSSTGAVTTSNYANWVQEKPDHLFTGLIGGTNNRAPGVPARFSGSLIGDKAALTITGAQTEDEAIYFCALWYSNHWVFGGGTKLTVLGQPKAAPSVTLFPPDIQMTQSPSSLSASVGDRVTITCRASQDVSTAVAWYQQKPGKAPKLLIYSASFLYSGVPSRFSGSGSGTDFTLTISSLQPEDFATYYCQQSYTTPPTFGQGTKVEIKR
notes: HC linker short, LC linker long; also called DVD531H; DVD531L
For the molecule B5, the EC50 in assay [1] came out at 0.57 nM.

B6: DVD502 (VEGF/DLL4 DVD-Ig) (bispecific antibody, human IgG1)
VH: EVQLVESGGGLVQPGGSLRLSCAASGFTISDYWIHWVRQAPGKGLEWVAGITPAGGYTYYADSVKGRFTISADTSKNTAYLQMNSLRAEDTAVYYCARFVFFLPYAMDYWGQGTLVTVSSASTKGPSVFPLAPEVQLQQSGPELVKPGASVKMSCKASGYTFTSYVINWVKQKPGQGLEWIGLINPYNDGTKYNEKFKVKATLTSDKSSSTAYMELSSLTSEDSAVYYCASYYYGSRYYFDYWGQGTTLTVSS
VL: DIQMTQSPSSLSASVGDRVTITCRASQDVSTAVAWYQQKPGKAPKLLIYSASFLYSGVPSRFSGSGSGTDFTLTISSLQPEDFATYYCQQSYTTPPTFGQGTKVEIKRTVAAPDIQMTQSSSYLSVSLGGRVTITCKASDHINNWLAWYQQKPGNAPRLLISGATSLETGVPSRFSGSGSGKDYTLSITSLQTEDVATYYCQQYWSIPLTFGAGTKLELKR
notes: HC linker long, LC linker short; also called DVD502H; DVD502L
B6 gave an EC50 in assay [2] of 3.17 nM.

B7: DVD461 (DLL4/VEGF DVD-Ig) (bispecific antibody, human IgG1)
VH: QVQLVQSGAEVKKPGASVKISCKASGYSFTAYYIHWVKQAPGQGLEWIGYISSYNGATNYNQKFKGRVTFTTDTSTSTAYMELRSLRSDDTAVYYCARDYDYDVGMDYWGQGTLVTVSSASTKGPEVQLVESGGGLVQPGGSLRLSCAASGFTISDYWIHWVRQAPGKGLEWVAGITPAGGYTYYADSVKGRFTISADTSKNTAYLQMNSLRAEDTAVYYCARFVFFLPYAMDYWGQGTLVTVSS
VL: DIVMTQSPDSLAVSLGERATISCRASESVDNYGISFMKWFQQKPGQPPKLLIYAASNQGSGVPDRFSGSGSGTDFTLTISSLQAEDVAVYYCQQSKEVPWTFGGGTKVEIKRTVAAPSVFIFPPDIQMTQSPSSLSASVGDRVTITCRASQDVSTAVAWYQQKPGKAPKLLIYSASFLYSGVPSRFSGSGSGTDFTLTISSLQPEDFATYYCQQSYTTPPTFGQGTKVEIKR
notes: HC linker short, LC linker long; also called DVD461H; DVD461L
Molecule B7 registered an EC50 in assay [1] of 0.52 nM.

B8: DVD525 (DLL4/VEGF DVD-Ig) (bispecific antibody, human IgG1)
VH: EVQLQQSGPELEKPGASVKISCKASGYSFTGYNMNWVKQSNGKSLEWIGNIDPYFGGTNYNQKFKGKATLTVDKSSSTAYMQLKSLTSEDSAVYYCARNYDYDGGCFDYWGQGTTLTVSSASTKGPSVFPLAPEVQLVESGGGLVQPGGSLRLSCAASGFTISDYWIHWVRQAPGKGLEWVAGITPAGGYTYYADSVKGRFTISADTSKNTAYLQMNSLRAEDTAVYYCARFVFFLPYAMDYWGQGTLVTVSS
VL: QAVVTQESALTTSPGETVTLTCRSSTGAVTTSNYANWVQEKPDHLFTGLIGGTNNRAPGVPARFSGSLIGDKAALTITGAQTEDEAIYFCALWYSNHWVFGGGTKLTVLGQPKAAPDIQMTQSPSSLSASVGDRVTITCRASQDVSTAVAWYQQKPGKAPKLLIYSASFLYSGVPSRFSGSGSGTDFTLTISSLQPEDFATYYCQQSYTTPPTFGQGTKVEIKR
notes: HC linker long, LC linker short; also called DVD525H; DVD525L
In assay [3], B8 had an EC50 of 1 nM.

B9: DVD456 (VEGF/DLL4 DVD-Ig) (bispecific antibody, human IgG1)
VH: EVQLVESGGGLVQPGGSLRLSCAASGFTISDYWIHWVRQAPGKGLEWVAGITPAGGYTYYADSVKGRFTISADTSKNTAYLQMNSLRAEDTAVYYCARFVFFLPYAMDYWGQGTLVTVSSASTKGPSVFPLAPQVQLVQSGAEVKKPGASVKISCKASGYSFTAYYIHWVKQAPGQGLEWIGYISSYNGATNYNQKFKGRVTFTTDTSTSTAYMELRSLRSDDTAVYYCARDYDYDVGMDYWGQGTLVTVSS
VL: DIQMTQSPSSLSASVGDRVTITCRASQDVSTAVAWYQQKPGKAPKLLIYSASFLYSGVPSRFSGSGSGTDFTLTISSLQPEDFATYYCQQSYTTPPTFGQGTKVEIKRTVAAPDIVMTQSPDSLAVSLGERATISCRASESVDNYGISFMKWFQQKPGQPPKLLIYAASNQGSGVPDRFSGSGSGTDFTLTISSLQAEDVAVYYCQQSKEVPWTFGGGTKVEIKR
notes: HC linker long, LC linker short; also called DVD456H; DVD456L
In assay [2], B9 displayed an EC50 of 2.48 nM.

B10: DVD501 (DLL4/VEGF DVD-Ig) (bispecific antibody, human IgG1)
VH: EVQLQQSGPELVKPGASVKMSCKASGYTFTSYVINWVKQKPGQGLEWIGLINPYNDGTKYNEKFKVKATLTSDKSSSTAYMELSSLTSEDSAVYYCASYYYGSRYYFDYWGQGTTLTVSSASTKGPSVFPLAPEVQLVESGGGLVQPGGSLRLSCAASGFTISDYWIHWVRQAPGKGLEWVAGITPAGGYTYYADSVKGRFTISADTSKNTAYLQMNSLRAEDTAVYYCARFVFFLPYAMDYWGQGTLVTVSS
VL: DIQMTQSSSYLSVSLGGRVTITCKASDHINNWLAWYQQKPGNAPRLLISGATSLETGVPSRFSGSGSGKDYTLSITSLQTEDVATYYCQQYWSIPLTFGAGTKLELKRTVAAPDIQMTQSPSSLSASVGDRVTITCRASQDVSTAVAWYQQKPGKAPKLLIYSASFLYSGVPSRFSGSGSGTDFTLTISSLQPEDFATYYCQQSYTTPPTFGQGTKVEIKR
notes: HC linker long, LC linker short; also called DVD501H; DVD501L
Molecule B10 came in with an EC50 in assay [3] of 0.18 nM.

B11: DVD483 (DLL4/VEGF DVD-Ig) (bispecific antibody, human IgG1)
VH: EVQLVESGGGLVQPGGSLRLSCAASGFTFTDNWISWVRQAPGKGLEWVGYISPNSGFTYYADSVKGRFTISADTSKNTAYLQMNSLRAEDTAVYYCARDNFGGYFDYWGQGTLVTVSSASTKGPEVQLVESGGGLVQPGGSLRLSCAASGFTISDYWIHWVRQAPGKGLEWVAGITPAGGYTYYADSVKGRFTISADTSKNTAYLQMNSLRAEDTAVYYCARFVFFLPYAMDYWGQGTLVTVSS
VL: DIQMTQSPSSLSASVGDRVTITCRASQDVSTAVAWYQQKPGKAPKLLIYSASFLYSGVPSRFSGSGSGTDFTLTISSLQPEDFATTYYCQQSYTGTVTFGQGTKVEIKRTVAAPSVFIFPPDIQMTQSPSSLSASVGDRVTITCRASQDVSTAVAWYQQKPGKAPKLLIYSASFLYSGVPSRFSGSGSGTDFTLTISSLQPEDFATYYCQQSYTTPPTFGQGTKVEIKR
notes: HC linker short, LC linker long; also called DVD483H; DVD483L
In turn, B11 displayed an EC50 in assay [1] of 0.63 nM.
